The source of these data is the RNAGym collection of RNA variant scans (doi:10.7554/elife.80360).

The chains are these.
B1: HDV Ribozyme (parent)
chain: GGCCGGCAUGGUCCCAGCCUCCUCGCUGGCGCCGGCUGGGCAACAUUCCGAGGGGACCGUCCCCUCGGUAAUGGCGAAUGGGACCCA

This data set covers variants of B1. The data set is described as follows: self-cleavage, relative activity (ratio to wild type); higher = more cleavage; co-transcriptional.
In the case of GGCCGGCAUGGUCCCAGCCUCCUCGCUGGCGCCGGCUGGGCAACAUACCGAGGGGACCGUCCCCUCGGUAAUGGCGAAUGGCACCCA [U47A G82C], the self-cleavage was 0.489. GGCCGGCAUGGUCCCAGCCUCCUCGCUGCCGCCGGCUGAGCAACAUUCCGAGGGGACCGUCCCCUCGGUAAUGGCGAAUGGGACCCA [G29C G39A]: the self-cleavage worked out at 0.0583. As for GGCCGGCAUGGUCCCAGCCUCCUCGCUGGCGCCGGCUGGGGAACAUUCCGAGGGGACCGUCCCCUCGGUAAUGGCUAAUGGGACCCA [C41G G76U], the self-cleavage came out at 0.989. On to GGCCGGCAUGGUCUCAGCCUCCUCGCUGGCGCCGGCUGGGCAACAUUCCGAGGGGACCGUCCCCUCGGUAAUGGCGAAUGGGACCGA [C14U C86G], for which the self-cleavage stood at 1.12. With GGCCGGCAUGGUCCCAGCCUCCUCGUUGGCGCCGGCUGGGCAACAUUCCGAGGGGACCGUCCCCUCGGCAAUGGCGAAUGGGACCCA [C26U U69C], the self-cleavage was 1.12.

For GGCCGGCAUGGUCCCAGCCUCCUCGCUUGCGCCGGCUGGGCAACAUUCCGAGGGGACCGUCCCCUCGGUAAUAGCGAAUGGGACCCA [G28U G73A], the self-cleavage was 0. For GGCCGGCAUGGUCCCAGCCUCCUCGCUGGCGCUGGCAGGGCAACAUUCCGAGGGGACCGUCCCCUCGGUAAUGGCGAAUGGGACCCA [C33U U37A], the self-cleavage was 0.17.

Regarding GGCCGGCAUGGUCCUAGCCUCCUCGCUGGCGCCGGCUGGGCAACAUUCCGAGGGGACCGUCCCCUCGGUAAUGGCGAAUGGCACCCA [C15U G82C], the self-cleavage was 0.166. In the case of GGCCGGCAUGCUCCCAGCCUCCUCGCCGGCGCCGGCUGGGCAACAUUCCGAGGGGACCGUCCCCUCGGUAAUGGCGAAUGGGACCCA [G11C U27C], the self-cleavage came out at 0.196. In the case of GGCCGGCAUGGUCCCAGCCUGCUCGCUGGCGCCGGCUGGGCAACAUUCCGAGGGGACCGUCCCCUCGGUAAUGGCGGAUGGGACCCA [C21G A77G], the self-cleavage stood at 0.0386. Consider CGCCGGCAUGGUCCCAGCCUCCUCGCUGGCGCCGGCUGGACAACAUUCCGAGGGGACCGUCCCCUCGGUAAUGGCGAAUGGGACCCA [G1C G40A], for which the self-cleavage is 0.111. As to GGCCGGCAUGGGCCCAGCCUCCUCGCUGCCGCCGGCUGGGCAACAUUCCGAGGGGACCGUCCCCUCGGUAAUGGCGAAUGGGACCCA [U12G G29C], the self-cleavage came out at 0.175.

Take GGCCGGCAAGGUCCCAGCCUCCGCGCUGGCGCCGGCUGGGCAACAUUCCGAGGGGACCGUCCCCUCGGUAAUGGCGAAUGGGACCCA [U9A U23G]: the self-cleavage is 0.7. Take GGCCGGCAUGGUCCCAGCCUCCUGGCUGGCGCCGGCUGGGCAACCUUCCGAGGGGACCGUCCCCUCGGUAAUGGCGAAUGGGACCCA [C24G A45C]: the self-cleavage stood at 0.0302. For GGCCGGCAUGUUCCCAGCCUCCUCGCUGGCGCCGGCUGGGCAACAUUCCUAGGGGACCGUCCCCUCGGUAAUGGCGAAUGGGACCCA [G11U G50U], the self-cleavage stood at 0.583. The result for GGCCGGCAUGGUCCCAGCCUCCUCGCUGGCGCCGCCUGGGCAACAUUCCGAGGGGACCGUCCACUCGGUAAUGGCGAAUGGGACCCA [G35C C63A] reads 0.259; that for GGCCGGCAUGGUCCCAGCCUCCUAGCUGGCGCCGGCUGGGCAACAUUCCGAGGGGACCGUCCCCUCGGUAAUGGCGAAUAGGACCCA [C24A G80A], 0.131. Take GGCCGGCAUGGUCUCAACCUCCUCGCUGGCGCCGGCUGGGCAACAUUCCGAGGGGACCGUCCCCUCGGUAAUGGCGAAUGGGACCCA [C14U G17A]: the self-cleavage is 0.514. In the case of GGCCGGCAUGGUCCCAGCCUCCUCGCUGGCUCCGGCUGGGCAACAUUCCGAGGGAACCGUCCCCUCGGUAAUGGCGAAUGGGACCCA [G31U G55A], the self-cleavage turned out to be 0.506. In the case of GGGCGGCAUGGUCCCAGCCUCCUCGCUGGCGCCGGCUGGGCAACAUUCCGAGGGGACCGUCCCCUCGGUAAUGGCGAAUGGCACCCA [C3G G82C], the self-cleavage was found to be 0.0923. In the case of GGCCGGCAUGGUCCCAGCCUCCUCACUGGCGCCGGCUGGGCAACAUUCCGAGGGGACCGUCCCCUCGGUAAUGGCGAAUGGGAUCCA [G25A C84U] it was 0.173; in that of GGCCGGCAUGGUCCCAGCCUCCUCGCUGGCGCCGUCUGGGCAACAUUCCGAGGGGACUGUCCCCUCGGUAAUGGCGAAUGGGACCCA [G35U C58U], 0.249.

With GGCCGGCAUGGUCCCAGCCUCCUCGCUGGCGCCGGCUGGGCAACAUUCCGAGCGGACCGUCCCCUCGGUAACGGCGAAUGGGACCCA [G53C U72C], the self-cleavage was 1.02. As to GGCCUGCAUGGUCCCAGCCUCCUCGCUGGCGCCGGCUGGGCAACAUUCCGAGGGGACCCUCCCCUCGGUAAUGGCGAAUGGGACCCA [G5U G59C], the self-cleavage is 0.415. In the case of GGCCGGCAUGGUCCCAGCCUCAUCGCUGGCGCCGGCUGGGCAACAUUCCGAGGGGACCGUCCCCUCGGUAAUGGCGAAUGGGAACCA [C22A C84A] it was 0.0707. With GGCCAUCAUGGUCCCAGCCUCCUCGCUGGCGCCGGCUGGGCAACAUUCCGAGGGGACCGUCCCCUCGGUAAUGGCGAAUGGGACCCA [G5A G6U], the self-cleavage turned out to be 0.0923. The result for GGCCGGCAUGGUCCCAGCCUCCUCGCUGGAGCCGGCUGGGCAACAUUCCGAGGGGACCGUCCCCUCGGUAAUGGCGAAUGAGACCCA [C30A G81A] reads 0.111; that for GGCCGGCAUGGUCCCAGCCUCCUCGCUGGUGCCGGCUGCGCAACAUUCCGAGGGGACCGUCCCCUCGGUAAUGGCGAAUGGGACCCA [C30U G39C], 0.0314; that for GGCCGGCAUGGUCCCAGCCUCCUCGCUGGCGCCGGCUGGGCAACAUUCCGAGGGGACCGUCGCCUCCGUAAUGGCGAAUGGGACCCA [C62G G67C], 0.147. Turning to GGCCGGCAUGGUCCCAGCCUCCUCGCUGUCGCCGGCUGGGCAACAUUCCGAGGGGACCGUCCCCUCGGUAAUGCCGAAUGGGACCCA [G29U G74C], the self-cleavage came to 0.137.

For GGCUGGCAGGGUCCCAGCCUCCUCGCUGGCGCCGGCUGGGCAACAUUCCGAGGGGACCGUCCCCUCGGUAAUGGCGAAUGGGACCCA [C4U U9G], the self-cleavage was 0.782. Turning to GGCCGGCAUGGUCCCAGCCUCCUCGCUGGCGCCGGUUGGGCAACAUUCCGAGGGGACCGUCCGCUCGGUAAUGGCGAAUGGGACCCA [C36U C63G], the self-cleavage worked out at 0.493.
